Results on three molecules are retold here after US20250289897A1 (Eli Lilly, published 2025).

Residue numbers refer to the chain shown, from its start.

The target in experiment [1] is neonatal Fc receptor (FcRn) on FcRn Affinity Column Gen2 (Roche, Cat #09430857001) (UniProt P55899 24-297; P61769 21-119, limits assumed). Description: FcRn-HPLC (Roche FcRn Affinity Column Gen2), pH gradient 5.5 to 8.8 over 90 minutes.
Description: Stock antibody solutions were diluted to 1 mg/mL into 20 mM MES, 140 mM NaCl, pH5.5. […] 20 μμL antibody injections were made followed by 10 minute column wash with 20 mM MES, 140 mM NaCl, pH5.5. Antibodies were then eluted by pH gradient elution into 20 mM Tris, 140 mM NaCl, pH8.8 over 90 minutes. Chromatograms were blank-subtracted to remove baseline drift.
Experiment [2] addresses T1, CYNO LEPR-ECD-His (cynomolgus monkey, UniProt Q9MYL0 22-837 (rhesus entry)).
T1 construct: also called cynomolgus monkey LEPR
T1 sequence: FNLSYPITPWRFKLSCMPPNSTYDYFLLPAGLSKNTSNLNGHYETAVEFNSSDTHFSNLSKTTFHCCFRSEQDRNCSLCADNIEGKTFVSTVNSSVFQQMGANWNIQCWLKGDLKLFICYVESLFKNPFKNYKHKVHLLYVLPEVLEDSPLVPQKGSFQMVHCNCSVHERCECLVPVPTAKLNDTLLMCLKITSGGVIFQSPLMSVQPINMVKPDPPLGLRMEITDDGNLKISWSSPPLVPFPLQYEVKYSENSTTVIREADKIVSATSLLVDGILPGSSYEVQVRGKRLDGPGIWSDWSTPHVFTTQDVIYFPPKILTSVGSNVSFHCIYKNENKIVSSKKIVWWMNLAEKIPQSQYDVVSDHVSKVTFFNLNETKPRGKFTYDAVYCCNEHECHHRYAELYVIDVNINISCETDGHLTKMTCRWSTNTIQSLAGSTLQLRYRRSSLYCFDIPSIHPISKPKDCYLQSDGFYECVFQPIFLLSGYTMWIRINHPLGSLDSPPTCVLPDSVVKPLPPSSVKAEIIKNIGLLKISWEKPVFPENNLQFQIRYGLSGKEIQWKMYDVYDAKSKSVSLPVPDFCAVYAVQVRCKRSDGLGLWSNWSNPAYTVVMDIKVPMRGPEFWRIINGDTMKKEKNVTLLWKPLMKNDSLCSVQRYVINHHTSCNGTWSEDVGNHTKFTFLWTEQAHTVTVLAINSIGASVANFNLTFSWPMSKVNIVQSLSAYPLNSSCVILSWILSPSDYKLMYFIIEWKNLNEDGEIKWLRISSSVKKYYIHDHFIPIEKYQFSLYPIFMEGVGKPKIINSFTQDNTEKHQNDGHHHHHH
As to the kind of experiment: SPR (Biacore T200), antibody captured on Protein A/G chip, His-tagged LEPR-ECD as analyte, 1:1 fit; mean n=3, SD 2.0E-9.
Description: (§1) His-tagged ECDs were expressed and purified for each species and used for affinity analysis. A Protein A/G chip (Xantec, Cat #PAGHC200M) was utilized in this experiment with HBS-EP +0.01% BSA as running buffer. Antibodies were diluted to 1 μg/mL in running buffer and captured to a single flow cell on the chip surface. Each species of LEPR-ECD was diluted to 1000 nM in running buffer followed by 2-fold serial dilution. Each ligand concentration was injected over all flow cells at 100 L/min for 150 seconds followed by a 600 second dissociation phase. Regeneration was performed by injecting 10 mM glycine pH1.5 for 30 seconds at 10 μL/min. Data were analyzed in Biacore T200 Evaluation Software 3.1 by flow-cell 1 reference subtraction along with 0 nM blank subtraction. Data were fit globally using a “1:1 Binding” binding model to determine the on-rate (kₐ) and off-rate (kd) for each ligand. The affinity (KD) was calculated from the binding kinetics according to the relationship KD=kₐ/kd. Data reported as mean±standard deviation of experimental replicates.

Another experiment concerns the target T2, Mouse LEPR-ECD-His (mouse, UniProt P48356 22-839).
T2 sequence: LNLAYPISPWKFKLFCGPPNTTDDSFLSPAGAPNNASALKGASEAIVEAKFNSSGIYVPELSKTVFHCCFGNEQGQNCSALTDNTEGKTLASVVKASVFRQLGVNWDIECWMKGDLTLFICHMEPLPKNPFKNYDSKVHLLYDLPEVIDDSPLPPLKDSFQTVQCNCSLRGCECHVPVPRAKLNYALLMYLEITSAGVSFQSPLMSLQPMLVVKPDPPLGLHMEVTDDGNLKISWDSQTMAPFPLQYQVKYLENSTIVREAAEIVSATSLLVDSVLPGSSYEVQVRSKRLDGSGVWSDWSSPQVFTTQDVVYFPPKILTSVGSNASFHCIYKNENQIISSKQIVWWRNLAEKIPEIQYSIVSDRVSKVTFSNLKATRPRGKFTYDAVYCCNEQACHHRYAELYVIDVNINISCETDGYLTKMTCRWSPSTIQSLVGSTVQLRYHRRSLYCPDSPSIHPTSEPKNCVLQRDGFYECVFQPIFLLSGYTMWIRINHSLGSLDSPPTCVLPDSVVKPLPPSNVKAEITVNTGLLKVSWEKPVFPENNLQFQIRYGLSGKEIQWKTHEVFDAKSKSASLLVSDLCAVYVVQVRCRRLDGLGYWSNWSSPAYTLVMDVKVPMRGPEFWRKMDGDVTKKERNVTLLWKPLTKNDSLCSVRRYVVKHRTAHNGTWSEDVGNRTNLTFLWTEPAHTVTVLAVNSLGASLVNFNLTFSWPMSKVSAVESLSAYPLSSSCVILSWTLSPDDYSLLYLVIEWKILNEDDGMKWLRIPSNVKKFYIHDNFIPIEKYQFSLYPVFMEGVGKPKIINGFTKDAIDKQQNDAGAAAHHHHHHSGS
Description: SPR (Biacore T200), antibody captured on Protein A/G chip, n = 1. For orientation: SPR reads the build-up and loss of mass on a sensor chip optically.

Experiment [3] deals with T1, CYNO LEPR-ECD-His. As to the kind of experiment: SPR (Biacore T200), antibody captured on Protein A/G chip, His-tagged LEPR-ECD as analyte, 1:1 fit; mean n=4, SD 2.6E-8.
Description: as §1
Experiment [4] deals with T3, cynomolgus monkey LEPR, full length, on HEK293-STAT3Luc-cmLepR2 cells (Macaca fascicularis).
T3 construct: whole, on cells; also called cyno-LEPR; Macaca fascicularis LEPR
Description: flow cytometry on live HEK293-STAT3Luc-cmLepR2 cells, AF647 anti-human IgG; average of 4 runs, SD 1.0. For orientation: In flow cytometry, cells or beads pass a laser one at a time.
Description: Cells were incubated in blocking buffer for 10 mins at room temperature. After one rinse with PBS, cells were transferred to U-bottom 96-well plate at 200 μL and 0.2˜0.26^e6 cells/well. […] Cells were then incubated with 30 μL/well of antibodies diluted in flow buffer at 1000 nM as high dose followed by 9-point dose response including 5-fold dilutions not including 0 (totaling 9 concentrations for each Antibody) for 30 minutes at 4° C. in dark.

neonatal Fc receptor (FcRn) on FcRn Affinity Column Gen2 (Roche, Cat #09430857001), sequence (P55899 24-297 limits assumed, chain 1 of 2): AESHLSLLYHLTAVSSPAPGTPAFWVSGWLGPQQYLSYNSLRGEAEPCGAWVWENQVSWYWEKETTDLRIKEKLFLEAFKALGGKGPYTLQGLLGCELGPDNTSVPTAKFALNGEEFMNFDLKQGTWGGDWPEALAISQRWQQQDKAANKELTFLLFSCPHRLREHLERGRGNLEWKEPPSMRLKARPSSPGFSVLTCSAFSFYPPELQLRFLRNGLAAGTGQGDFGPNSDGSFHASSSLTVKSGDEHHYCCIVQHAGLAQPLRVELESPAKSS
neonatal Fc receptor (FcRn) on FcRn Affinity Column Gen2 (Roche, Cat #09430857001), sequence (P61769 21-119 limits assumed, chain 2 of 2): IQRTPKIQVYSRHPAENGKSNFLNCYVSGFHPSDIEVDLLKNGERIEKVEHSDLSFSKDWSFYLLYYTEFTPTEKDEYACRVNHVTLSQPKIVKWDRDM
Description for Mouse LEPR-ECD-His: as §1

B1: Antibody A (antibody, human IgG1, kappa, L234A L235A)
heavy: EVQLLESGGGLVQPGGSLRLSCAASGFTFSSFAMSWVRQAPGKGLEWVSAISGSGGSTYSADSVRGRFTISRDNSKNTLYLQMNSLRAEDTAVYYCAKDQGDWDFLFDYWGQGTLVTVSSASTKGPSVFPLAPSSKSTSGGTAALGCLVKDYFPEPVTVSWNSGALTSGVHTFPAVLQSSGLYSLSSVVTVPSSSLGTQTYICNVNHKPSNTKVDKRVEPKSCDKTHTCPPCPAPEAAGGPSVFLFPPKPKDTLYITREPEVTCVVVSVSHEDPEVKFNWYVDGVEVHNAKTKPREEQYNSTYRVVSVLTVLHQDWLNGKEYKCKVSNKALPAPIEKTISKAKGQPREPQVYTLPPSREEMTKNQVSLTCLVKGFYPSDIAVEWESNGQPENNYKTTPPVLDSDGSFFLYSKLTVDKSRWQQGNVFSCSVMHEALHNHYTQKSLSLSPGK
light: DIQMTQSPSFLSASVGDRVTITCRASQGISSSLAWYQQKPGKAPKLLIYTASTLQSGVPSRFSGSGSGTEFTLTISSLQPEDFATYYCQQLIYYPFTFGQGTKVEIKRTVAAPSVFIFPPSDEQLKSGTASVVCLLNNFYPREAKVQWKVDNALQSGNSQESVTEQDSKDSTYSLSSTLTLSKADYEKHKVYACEVTHQGLSSPVTKSFNRGEC
notes: IgG1 mAb
Regarding B1, the “Retention Time” value in experiment [1] was determined as 80.1 min. This molecule returned a dissociation constant Kd with CYNO LEPR-ECD-His [2] of 19 nM.

B2: Antibody C (antibody, human IgG1, kappa, L234A L235A, V domains shown)
VH: EVQLLESGGGLVQPGGSLRLSCAASGFTFSSFAMSWVRQAPGKGLEWVSAISGSGGSTYSADSVRGRFTISRDNSKNTLYLQMNSLRAEDTAVYYCAKDQGDWDFLFDYWGQGTLVTVSS
VL: DIQMTQSPSFLSASVGDRVTITCRASQGISSSLAWYQQKPGKAPKLLIYTASTLQSGVPSRFSGSGSGTEFTLTISSLQPEDFATYYCQQLNYYPFSFGQGTKVEIKR
B2: in the experiment with Mouse LEPR-ECD-His, the binding result is recorded as “no binding (tested: LEPR-ECD tested up to 1000 nM)”. For the same molecule, the dissociation constant Kd in the experiment with CYNO LEPR-ECD-His [3] was found to be 47 nM.

B3: Antibody B (antibody, human IgG1, kappa, L234A L235A, V domains shown)
VH: B2 VH
VL: B2 VL with A25V, S97T
B3 showed a 50% effective concentration (EC50) in experiment [4] of 1.11 nM.

The Kd is the free concentration of one partner at which half of the binding sites on the other are occupied at equilibrium, for simple one-to-one binding. A word on the EC50: it is the concentration at which the effect is half-maximal.
